The source of these data is article doi:10.1101/340133.

For assay [1], the target named is dynamic microtubules polymerized from αβ-tubulin on GMPCPP seeds (porcine) (UniProt P02554). In words: TIRF microscopy of dynamic microtubules.
The target is the same in assay [2]. In words: single molecule TIRF microscopy of dynamic microtubules.

Chain of UniProt P02554 (P02554 whole entry, looked up): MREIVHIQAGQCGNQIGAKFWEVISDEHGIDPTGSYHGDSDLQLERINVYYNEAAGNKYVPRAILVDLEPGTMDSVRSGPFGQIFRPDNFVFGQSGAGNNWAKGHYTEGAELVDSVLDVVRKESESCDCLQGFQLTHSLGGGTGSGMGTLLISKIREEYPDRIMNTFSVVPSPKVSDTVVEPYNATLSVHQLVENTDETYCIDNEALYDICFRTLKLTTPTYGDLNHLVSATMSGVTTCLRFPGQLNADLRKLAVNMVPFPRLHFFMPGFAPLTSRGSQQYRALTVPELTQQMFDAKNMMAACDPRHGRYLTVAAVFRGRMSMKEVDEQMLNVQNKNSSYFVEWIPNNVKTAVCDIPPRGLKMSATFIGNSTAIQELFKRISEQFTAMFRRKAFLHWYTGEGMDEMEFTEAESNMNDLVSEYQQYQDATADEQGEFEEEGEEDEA

B1: wt-Alp14 (residues 1-690) with C-terminal mNeonGreen (domain or fragment)
chain: MSQDQEEDYSKLPLESRIVHKVWKVRLSAYEECSKSFSLSADGSDNCFELWNNQSELWKSVLTDSNVAAQEAGTAAFVAYCRFSDPSHLLKAREISVLSISEKCLTSPRAGTRENALEALMLLVEADSAAPVIESIIPSLSARSPKVIASNVAAIASLVEQFGAKVIPSKMIIPHISNLFGHADKNVRKEASRLTVNIYRWTGDPLKDLLFKDLRPVQTKELESLFAELPTEPPKQTRFLKSQQPTSEPNVETQVEEQPALENEESEPEPSDDQFDLVEEVDVLPNVDPNLETLMASSKWKDRKEALDKLLPVLSQPKIKDNDFFNLVAILTKSVSKDANIMVVINAAHCIQAMAKGLRSNFSKYASTSINALLERSKEKKANVIESLSSAMDAVLATSSLDDLAELIASFAGNKNPQIKSSCFSLFSRSFSNMTSLPSKFTVDTCAKACVPGVSDTFEPVRSAAAEALGVLMKLVGERAINQYLSPLDDIRKSKIRSFYETATVKAKAPTKKSKVKPSKQEESKVVVPSNAKAVKKSVVPSSPVVPSPRKATNKSLSMDVSKGNAFENGPLLPRPTTRPVSRGLSRGTSSSLQQKVKASTPLNSGALNETVQNLKNMELDDPAPQPAKHSRVDRYEHPKVLEDNDSTISSLESLKRENEELREQLKVEHEENISMQKQLSELKGELNTL
For the molecule B1, the residence ratio at MT plus-ends (average) in assay [1] was determined as 89.4%.

B2: TOG1 inactivated Alp14 (TOG1M), residues 1-690, with C-terminal mNeonGreen (domain or fragment)
chain: MSQDQEEDYSKLPLESRIVHKVAKVRLSAYEECSKSFSLSADGSDNCFELWNNQSELWKSVLTDSNVAAQEAGTAAFVAYCRFSDPSHLLKAREISVLSISEKCLTSPAAGTRENALEALMLLVEADSAAPVIESIIPSLSARSPKVIASNVAAIASLVEQFGAKVIPSKMIIPHISNLFGHADKNVRKEASRLTVNIYAWTGDPLKDLLFKDLRPVQTKELESLFAELPTEPPKQTRFLKSQQPTSEPNVETQVEEQPALENEESEPEPSDDQFDLVEEVDVLPNVDPNLETLMASSKWKDRKEALDKLLPVLSQPKIKDNDFFNLVAILTKSVSKDANIMVVINAAHCIQAMAKGLRSNFSKYASTSINALLERSKEKKANVIESLSSAMDAVLATSSLDDLAELIASFAGNKNPQIKSSCFSLFSRSFSNMTSLPSKFTVDTCAKACVPGVSDTFEPVRSAAAEALGVLMKLVGERAINQYLSPLDDIRKSKIRSFYETATVKAKAPTKKSKVKPSKQEESKVVVPSNAKAVKKSVVPSSPVVPSPRKATNKSLSMDVSKGNAFENGPLLPRPTTRPVSRGLSRGTSSSLQQKVKASTPLNSGALNETVQNLKNMELDDPAPQPAKHSRVDRYEHPKVLEDNDSTISSLESLKRENEELREQLKVEHEENISMQKQLSELKGELNTL
On to B2, for which the residence ratio at MT plus-ends (average) in assay [1] came to 72.4%.

B3: SNAPf-tagged TOG1M Alp14 (residues 1-690) (domain or fragment)
chain: MSQDQEEDYSKLPLESRIVHKVAKVRLSAYEECSKSFSLSADGSDNCFELWNNQSELWKSVLTDSNVAAQEAGTAAFVAYCRFSDPSHLLKAREISVLSISEKCLTSPAAGTRENALEALMLLVEADSAAPVIESIIPSLSARSPKVIASNVAAIASLVEQFGAKVIPSKMIIPHISNLFGHADKNVRKEASRLTVNIYAWTGDPLKDLLFKDLRPVQTKELESLFAELPTEPPKQTRFLKSQQPTSEPNVETQVEEQPALENEESEPEPSDDQFDLVEEVDVLPNVDPNLETLMASSKWKDRKEALDKLLPVLSQPKIKDNDFFNLVAILTKSVSKDANIMVVINAAHCIQAMAKGLRSNFSKYASTSINALLERSKEKKANVIESLSSAMDAVLATSSLDDLAELIASFAGNKNPQIKSSCFSLFSRSFSNMTSLPSKFTVDTCAKACVPGVSDTFEPVRSAAAEALGVLMKLVGERAINQYLSPLDDIRKSKIRSFYETATVKAKAPTKKSKVKPSKQEESKVVVPSNAKAVKKSVVPSSPVVPSPRKATNKSLSMDVSKGNAFENGPLLPRPTTRPVSRGLSRGTSSSLQQKVKASTPLNSGALNETVQNLKNMELDDPAPQPAKHSRVDRYEHPKVLEDNDSTISSLESLKRENEELREQLKVEHEENISMQKQLSELKGELNTL
modifications: SNAP-Surface Atto 488 covalently attached to the SNAPf tag
As to B3, the dwell time at MT plus-ends in assay [2] was determined as 57.4 s.

B4: C-terminally SNAPf-tagged wt-Alp14 (residues 1-690) (domain or fragment)
chain: MSQDQEEDYSKLPLESRIVHKVWKVRLSAYEECSKSFSLSADGSDNCFELWNNQSELWKSVLTDSNVAAQEAGTAAFVAYCRFSDPSHLLKAREISVLSISEKCLTSPRAGTRENALEALMLLVEADSAAPVIESIIPSLSARSPKVIASNVAAIASLVEQFGAKVIPSKMIIPHISNLFGHADKNVRKEASRLTVNIYRWTGDPLKDLLFKDLRPVQTKELESLFAELPTEPPKQTRFLKSQQPTSEPNVETQVEEQPALENEESEPEPSDDQFDLVEEVDVLPNVDPNLETLMASSKWKDRKEALDKLLPVLSQPKIKDNDFFNLVAILTKSVSKDANIMVVINAAHCIQAMAKGLRSNFSKYASTSINALLERSKEKKANVIESLSSAMDAVLATSSLDDLAELIASFAGNKNPQIKSSCFSLFSRSFSNMTSLPSKFTVDTCAKACVPGVSDTFEPVRSAAAEALGVLMKLVGERAINQYLSPLDDIRKSKIRSFYETATVKAKAPTKKSKVKPSKQEESKVVVPSNAKAVKKSVVPSSPVVPSPRKATNKSLSMDVSKGNAFENGPLLPRPTTRPVSRGLSRGTSSSLQQKVKASTPLNSGALNETVQNLKNMELDDPAPQPAKHSRVDRYEHPKVLEDNDSTISSLESLKRENEELREQLKVEHEENISMQKQLSELKGELNTL
modifications: SNAP-Surface Atto 488 covalently attached to the SNAPf tag (5-10 nM labeled diluted into 190-195 nM non-labeled)
Regarding B4, the dwell time at MT plus-ends in assay [2] worked out at 129 s.
